According to the Human Domainome abundance scans (Beltran et al. 2025):
± gives the uncertainty stated by the source.

B1: E3 ubiquitin-protein ligase NEDD4, residues 836 to 881; numbered along this chain, P46934 (parent)
chain: EIEQGFLPKGWEVRHAPNGRPFFIDHNTKTTTWEDPRLKIPAHLRG

Variants of: B1
Assay: abundance fitness (aPCA) (normalised: wild type 0, dead -1); higher = more abundant; growth selection in yeast, the domain comes from the species named
Settings: Homo sapiens

Row | Variant | abundance fitness
1 | H43S | 0.019 ± 0.032
2 | H43C | -0.22 ± 0.053
3 | H43W | -0.311 ± 0.075
4 | H43T | 0.059 ± 0.059
5 | H43Y | -0.041 ± 0.1
6 | H43A | -0.105 ± 0.054
7 | H43R | -0.195 ± 0.037
8 | H43D | -0.177 ± 0.087
9 | H43M | -0.251 ± 0.059
10 | H43E | 0.105 ± 0.058
11 | H43Q | 0.007 ± 0.048
12 | H43N | -0.084 ± 0.063
13 | H43P | 0.094 ± 0.064
14 | H43G | -0.078 ± 0.046
15 | H43K | -0.04 ± 0.054
16 | H43L | -0.107 ± 0.038
17 | K39F | -0.421 ± 0.066
18 | K39G | -0.065 ± 0.039
19 | K39I | -0.297 ± 0.038
20 | K39W | -0.298 ± 0.038
21 | K39R | 0.003 ± 0.051
22 | K39T | -0.023 ± 0.064

Row | Variant | abundance fitness
23 | K39Y | -0.319 ± 0.093
24 | K39V | -0.201 ± 0.045
25 | K39E | 0.062 ± 0.058
26 | K39Q | -0.372 ± 0.092
27 | K39H | -0.355 ± 0.075
28 | K39L | -0.144 ± 0.046
29 | K39M | -0.101 ± 0.065
30 | K39S | -0.098 ± 0.037
31 | I40H | -0.17 ± 0.084
32 | I40Y | -0.27 ± 0.063
33 | I40V | -0.007 ± 0.054
34 | I40D | -0.193 ± 0.1
35 | I40T | 0.04 ± 0.072
36 | I40C | -0.343 ± 0.11
37 | I40F | -0.239 ± 0.062
38 | I40A | 0.002 ± 0.043
39 | I40G | 0.028 ± 0.036
40 | I40N | -0.154 ± 0.11
41 | I40P | -0.335 ± 0.15
42 | I40L | -0.042 ± 0.053
43 | I40E | -0.233 ± 0.1
44 | I40Q | 0.085 ± 0.072

Row | Variant | abundance fitness
45 | I40K | 0.095 ± 0.07
46 | I40S | 0.009 ± 0.056
47 | I40R | -0.018 ± 0.058
48 | I40W | -0.055 ± 0.045
49 | I40M | -0.026 ± 0.069
50 | L44Y | -0.172 ± 0.039
51 | L44G | 0.056 ± 0.032
52 | L44K | -0.154 ± 0.072
53 | L44F | -0.423 ± 0.069
54 | L44S | -0.001 ± 0.056
55 | L44N | -0.34 ± 0.089
56 | L44A | 0.08 ± 0.047
57 | L44R | -0.221 ± 0.042
58 | L44C | 0.004 ± 0.041
59 | L44T | -0.027 ± 0.033
60 | L44I | -0.053 ± 0.045
61 | L44E | -0.07 ± 0.049
62 | L44P | 0.119 ± 0.068
63 | L44M | -0.002 ± 0.081
64 | L44W | -0.188 ± 0.051
65 | L44Q | 0.033 ± 0.063
66 | L44D | 0.116 ± 0.065

Row | Variant | abundance fitness
67 | L44H | 0.116 ± 0.069
68 | G46A | -0.249 ± 0.26
69 | G46S | -0.002 ± 0.094
70 | G46D | -0.088 ± 0.16
71 | R45W | -0.202 ± 0.078
72 | R45K | -0.016 ± 0.059
73 | R45F | -0.174 ± 0.079
74 | R45L | -0.182 ± 0.045
75 | R45D | 0.104 ± 0.037
76 | R45P | 0.006 ± 0.058
77 | R45N | 0.017 ± 0.037
78 | R45H | 0.104 ± 0.076
79 | R45G | 0.005 ± 0.041
80 | R45S | -0.131 ± 0.054
81 | R45T | -0.074 ± 0.041
82 | R45Q | -0.11 ± 0.091
83 | R45E | 0.153 ± 0.069
84 | R45V | -0.055 ± 0.049
85 | R45Y | -0.072 ± 0.041
86 | R45I | -0.454 ± 0.1
87 | R45C | 0.019 ± 0.067
88 | R45A | -0.005 ± 0.061
